According to publication PMC11870394:

Target: RSV prefusion F (PR-DM) (respiratory syncytial virus A) (UniProt P03420)
Experiment: cryo-EM structure

“RSV prefusion F (PR-DM) (from UniProt P03420) (complex)” showed a stoichiometry N of 3.
